# Results: publication PMC1182330
# Assays:
# [1] = test system: RNase M5 WT (Bacillus subtilis)
# [2] = test system: RNase M5 WT;ribosomal protein L18 (Bacillus subtilis;Bacillus subtilis)
substance,measurement,setting,value
5S rRNA precursor (pre-5S),K half,[1],2000 nM
same,binding signal (fold higher affinity than without L18),[2],10
